The series concerns the molecule itself. In words: cryo-EM structure; purified ClC-6 in 150 mM NaCl, 0.1% digitonin, 20 mM Hepes pH 7.4; apo, with 2 mM ATP and 2 mM MgCl2, and the Y553C mutant; C2 symmetry imposed.

Changes are numbered by the printed parent chain. Names may count otherwise.

The values that follow come from article PMC10575590, “Molecular basis of ClC-6 function and its impairment in human disease” (Science Advances, 2023).

B1: human ClC-6 (natural protein)
chain: MAGCRGSLCCCCRWCCCCGERETRTPEELTILGETQEEEDEILPRKDYESLDYDRCINDPYLEVLETMDNKKGRRYEAVKWMVVFAIGVCTGLVGLFVDFFVRLFTQLKFGVVQTSVEECSQKGCLALSLLELLGFNLTFVFLASLLVLIEPVAAGSGIPEVKCYLNGVKVPGIVRLRTLLCKVLGVLFSVAGGLFVEKEGPMIHSGSVVGAGLPQFQSISLRKIQFNFPYFRSDRDKRDFVSAGAAAGVAAAFGAPIGGTLFSLEEGSSFWNQGLTWKVLFCSMSATFTLNFFRSGIQFGSWGSFQLPGLLNFGEFKCSDSDKKCHLWTAMDLGFFVVMGVIGGLLGATFNCLNKRLAKYRMRNVHPKPKLVRVLESLLVSLVTTVVVFVASMVLGECRQMSSSSQIGNDSFQLQVTEDVNSSIKTFFCPNDTYNDMATLFFNPQESAILQLFHQDGTFSPVTLALFFVLYFLLACWTYGISVPSGLFVPSLLCGAAFGRLVANVLKSYIGLGHIYSGTFALIGAAAFLGGVVRMTISLTVILIESTNEITYGLPIMVTLMVAKWTGDFFNKGIYDIHVGLRGVPLLEWETEVEMDKLRASDIMEPNLTYVYPHTRIQSLVSILRTTVHHAFPVVTENRGNEKEFMKGNQLISNNIKFKKSSILTRAGEQRKRSQSMKSYPSSELRNMCDEHIASEEPAEKEDLLQQMLERRYTPYPNLYPDQSPSEDWTMEERFRPLTFHGLILRSQLVTLLVRGVCYSESQSSASQPRLSYAEMAEDYPRYPDIHDLDLTLLNPRMIVDVTPYMNPSPFTVSPNTHVSQVFNLFRTMGLRHLPVVNAVGEIVGIITRHNLTYEFLQARLRQHYQTI
notes: ClC-6 (chloride-proton exchanger), human; cDNA in the pEG BacMam vector; residues up to H851 are seen in the structure, so the whole protein is likely; also called WT ClC-6; apo-ClC-6; source: HEK293F cells, BacMam virus, purified (Strep-Tactin Sepharose, size exclusion chromatography) in digitonin
With B1, the “stoichiometry N” value came out at 2.

B2: ClC-6 mutant (Y553C) (natural protein, human)
chain: B1 chain with Y553C
notes: ClC-6, human, with the disease-causing patient variant p.Y553C; made as apo-ClC-6; Variant found in patients (heterozygous p.Y553C), so the origin is written as natural; also called Y553C mutant; p.Y553C; source: HEK293F cells, BacMam virus, purified (Strep-Tactin Sepharose, size exclusion chromatography) in digitonin
As to B2, the binding result is “binds”.

A word on the stoichiometry N: it is a count of units in the complex or per binding partner.
